Measured values reported in article PMC10693564 (Nature Communications, 2023).

Target: T1, UBE1L (1-1012aa) (UniProt P41226 1-1012)
T1 construct: In the cryo-EM sample its active-site cysteine was disulfide-linked to Cys86 of UBE2L6; also called UBA7; not shown: GST, N-terminal, cleaved
T1 sequence (looked up): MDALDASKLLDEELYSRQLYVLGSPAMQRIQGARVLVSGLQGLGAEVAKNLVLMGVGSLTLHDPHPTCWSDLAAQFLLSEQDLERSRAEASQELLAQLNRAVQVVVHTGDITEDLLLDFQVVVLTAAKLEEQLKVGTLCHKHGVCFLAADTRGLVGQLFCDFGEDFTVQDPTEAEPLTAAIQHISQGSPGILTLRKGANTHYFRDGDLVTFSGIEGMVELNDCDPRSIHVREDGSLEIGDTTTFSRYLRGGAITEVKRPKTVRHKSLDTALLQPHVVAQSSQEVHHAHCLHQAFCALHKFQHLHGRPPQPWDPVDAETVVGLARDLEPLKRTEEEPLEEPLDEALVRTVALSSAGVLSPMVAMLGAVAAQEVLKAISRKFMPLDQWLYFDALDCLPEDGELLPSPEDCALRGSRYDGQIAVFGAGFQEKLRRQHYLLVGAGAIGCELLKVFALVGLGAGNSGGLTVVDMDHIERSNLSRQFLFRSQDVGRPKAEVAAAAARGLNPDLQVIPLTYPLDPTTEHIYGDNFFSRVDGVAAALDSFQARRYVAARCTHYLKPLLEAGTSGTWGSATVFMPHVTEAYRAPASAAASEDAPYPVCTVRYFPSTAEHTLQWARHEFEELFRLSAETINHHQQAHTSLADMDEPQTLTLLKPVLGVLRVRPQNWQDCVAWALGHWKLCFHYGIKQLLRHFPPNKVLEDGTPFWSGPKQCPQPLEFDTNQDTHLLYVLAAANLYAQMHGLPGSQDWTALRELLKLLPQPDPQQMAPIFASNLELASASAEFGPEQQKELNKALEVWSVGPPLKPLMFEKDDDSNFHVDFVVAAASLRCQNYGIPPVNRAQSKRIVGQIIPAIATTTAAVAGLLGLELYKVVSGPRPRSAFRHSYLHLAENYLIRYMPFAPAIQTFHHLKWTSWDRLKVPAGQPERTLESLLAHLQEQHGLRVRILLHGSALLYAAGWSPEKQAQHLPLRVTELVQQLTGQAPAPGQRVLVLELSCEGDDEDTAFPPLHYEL
Experiment: cryo-EM structure
Details: both partners purified

B1: UBE2L6^C86only (enzyme)
chain: MMASMRVVKELEDLQKKPPPYLRNLSSDDANVLVWHALLLPDQPPYHLKAFNLRISFPPEYPFKPPMIKFTTKIYHPNVDENGQICLPIISSENWKPSTKTSQVLEALNVLVNRPNIREPLRMDLADLLTQNPELFRKNAEEFTLRFGVDRPS
notes: non-catalytic cysteines mutated to serine; also called UBE2L6(C98S/C102S); UbcH8; not shown: 6xHis, N-terminal, cleaved; GST, N-terminal, cleaved
binding result: binds
